B1: A. tumefaciens ClpS2 [Pro34 Arg35 Glu36] (protein)
chain: MGHHHHHHENLYFQGSDSPVDLKPKPKVKPKLERPKLYKVMLLNDDYTPREFVTVVLKAVFRMSEDTGRRVMMTAHRFGSAVVVVCERDIAETKAKEATDLGKEAGFPLMFTTEPEE
notes: wild-type Agrobacterium tumefaciens ClpS2, N-End Rule Pathway adaptor protein
B2: A. tumefaciens ClpS2 [Pro34 Met35 Ser36] (protein, listed as Escherichia coli)
chain: SDSPVDLKPKPKVKPKLERPKLYKVMLLNDDYTPMSFVTVVLKAVFRMSEDTGRRVMMTAHRFGSAVVVVCERDIAETKAKEATDLGKEAGFPLMFTTEPEE
notes: ClpS2 variant, native residues 34-36 ProArgGlu mutated to ProMetSer

Tests used:
Assay type in all cases: binding
[1] = tested on: F1G2 peptide; test: yeast/peptide colorimetric pull-down assay; details: yeast-displayed protein
Protocol: (§1) Incubation and wash steps were repeated.

[2] = molecular target: T1, Ala NAA peptide (Agrobacterium fabrum, UniProt Q8UD95); test: yeast/peptide colorimetric pull-down assay
T1 construct: factor Xa cleavage site (N); expressed in transfected cells; host or cells: Saccharomyces cerevisiae EBY100, pCTCON2
Protocol: as §1

[3] = molecular target: T2, Val NAA peptide (Agrobacterium fabrum, UniProt Q8UD95); test: yeast/peptide colorimetric pull-down assay
T2 construct: factor Xa cleavage site (N); expressed in transfected cells; host or cells: Saccharomyces cerevisiae EBY100, pCTCON2
Protocol: as §1

[4] = molecular target: T3, Ile NAA peptide (Agrobacterium fabrum, UniProt Q8UD95); test: yeast/peptide colorimetric pull-down assay
T3 construct: factor Xa cleavage site (N); expressed in transfected cells; host or cells: Saccharomyces cerevisiae EBY100, pCTCON2
Protocol: as §1

[5] = molecular target: T4, Lys NAA peptide (Agrobacterium fabrum, UniProt Q8UD95); test: yeast/peptide colorimetric pull-down assay; details: high concentrations used in the assay
T4 construct: factor Xa cleavage site (N); expressed in transfected cells; host or cells: Saccharomyces cerevisiae EBY100, pCTCON2
Protocol: as §1

[6] = molecular target: T5, Met NAA peptide (Agrobacterium fabrum, UniProt Q8UD95); test: yeast/peptide colorimetric pull-down assay; details: high concentrations used in the assay
T5 construct: factor Xa cleavage site (N); expressed in transfected cells; host or cells: Saccharomyces cerevisiae EBY100, pCTCON2
Protocol: as §1

[7] = tested on: Leu NAA peptide; test: yeast/peptide colorimetric pull-down assay; details: yeast-displayed protein
Protocol: as §1

[8] = tested on: Y1G2 peptide; test: SPR, peptide on streptavidin chip, ClpS2 variant protein in solution; details: for KOFF Tyr: from SPR dissociation curves; for Selectivity for Tyr, Tyr/Phe / Selectivity for Tyr, Tyr/Trp / Selectivity for Tyr, Tyr/Tyr: relative specificity factor, ratio of binding affinities; for Kd: steady state, peptide on surface, 0 to 50 μM protein, read-out: KD Tyr
Protocol: (§2) With regard to surface plasmon resonance (SPR), SPR data was collected by loading a streptavidin chip with the target biotinylated peptides in each of the four channels, and then flowing the protein over the chip at each concentration for 180 seconds before washing with 50 mM Tris-HCl, pH 8.0, 300 mM NaCl, 1 mM DTT, 5% glycerol buffer for 180 seconds. […] The four channels were used such that the negative control peptide (A1G2) was in channel 1, F1G2 in channel 2, W1G2 in channel 3, and Y1G2 in channel 4. The negative control peptide channel was used as a baseline for subtraction, which accommodates both any non-specific binding and refractive index change. A steady state response at each concentration was plotted and fit to calculate the KD, while the resonance units vs. time was used to calculate a koff for each mutant protein with each peptide.
(§3) Regarding characterization of the ClpS mutant protein binding kinetics, for peptide sequencing via some recently proposed methods reagents can bind peptides affixed to a surface. Two A. tumefaciens ClpS2 protein variants (V2, described above, and V1) were expressed and purified from E. coli. […] The binding properties of each variant were analyzed using surface plasmon resonance (SPR).

[9] = tested on: F1G2 peptide; test: as above; details: for specificity between N-terminal Phe and Trp, in words: from SPR binding data; for KOFF Phe: from SPR dissociation curves; for Selectivity for Phe, Phe/Phe / Selectivity for Phe, Phe/Trp / Selectivity for Phe, Phe/Tyr: relative specificity factor, ratio of binding affinities; for Kd: steady state, peptide on surface, 0 to 50 μM protein, read-out: KD Phe
Protocol: as §2, §3

[10] = molecular target: T6, His NAA peptide (Agrobacterium fabrum, UniProt Q8UD95); test: yeast/peptide colorimetric pull-down assay; set-up: factor Xa cleavage site (N); expressed in transfected cells; host or cells: Saccharomyces cerevisiae EBY100, pCTCON2; details: high concentrations used in the assay
Protocol: as §1

[11] = molecular target: T7, Arg NAA peptide (Agrobacterium fabrum, UniProt Q8UD95); test: yeast/peptide colorimetric pull-down assay; set-up: factor Xa cleavage site (N); expressed in transfected cells; host or cells: Saccharomyces cerevisiae EBY100, pCTCON2; details: high concentrations used in the assay
Protocol: as §1

[12] = molecular target: T6, His NAA peptide; test: flow cytometry of yeast displaying ClpS proteins; set-up: factor Xa cleavage site (N); expressed in transfected cells
Protocol: (§4) After two rounds of MACs selection, the library was sorted by flow cytometry. […] A typical reaction contained 100 μL of cells (containing approximately 10^6 cells), 10 μL of peptide at a concentration between 10 nM to 10 μM, and 25 μL of a master mix containing 2 μL of an anti-myc antibody, 4 μL of the SAPE (streptavidin, R-phycoerythrin conjugate—1 mg/mL) and 19 μL of PBS/BSA for each sample.
(§5) Cells were washed with PBS/BSA and sorted using a FACS Aria cytometer and collected in 1 mL of SD-CAA media. The number of cells that bound the peptide improved with each round and were sorted with sequentially lower concentrations of peptide to increase the stringency of the selection. […]
(§6) With regard to directed evolution of ClpS, random mutagenesis and screening was used to select proteins with higher affinity binding to the target NAA. In subsequent steps, specific residues were determined from initial screens with a targeted mutagenesis step. […] Using FACS, we assessed the affinity of each mutant for the N-terminal amino acid on the target peptide based on which quadrant the fluorescent signal fell into as shown in FIG. 15. […] If there is also a high fluorescence signal along the x-axis (streptavidin-PE) then the peptide is presumably bound to the protein variant, and the signal will appear in Q2. […]

[13] = molecular target: T7, Arg NAA peptide; test: flow cytometry of yeast displaying ClpS proteins; set-up: factor Xa cleavage site (N); expressed in transfected cells
Protocol: as §4, §5, §6

[14] = molecular target: T8, full panel of 20 peptides containing different NAAs (Agrobacterium fabrum, UniProt Q8UD95); test: yeast/peptide colorimetric pull-down assay, full panel
T8 construct: factor Xa cleavage site (N); expressed in transfected cells; host or cells: Saccharomyces cerevisiae EBY100, pCTCON2
Protocol: as §1

[15] = tested on: W1G2 peptide; details: for KOFF Trp: from SPR dissociation curves; for Selectivity for Trp, Trp/Phe / Selectivity for Trp, Trp/Trp / Selectivity for Trp, Trp/Tyr: relative specificity factor, ratio of binding affinities; for Kd: steady state, peptide on surface, 0 to 50 μM protein, read-out: KD Trp
Protocol: as §2, §3

Molecule | KOFF Tyr [8] | Selectivity for Tyr, Tyr/Phe [8] | Selectivity for Tyr, Tyr/Trp [8] | Selectivity for Tyr, Tyr/Tyr [8] | Kd [8] | specificity between N-terminal Phe and Trp, in words [9] | KOFF Phe [9] | Selectivity for Phe, Phe/Phe [9] | Selectivity for Phe, Phe/Trp [9] | Selectivity for Phe, Phe/Tyr [9] | Kd [9] | KOFF Trp [15] | Selectivity for Trp, Trp/Phe [15] | Selectivity for Trp, Trp/Trp [15] | Selectivity for Trp, Trp/Tyr [15] | Kd [15] | further results
A. tumefaciens ClpS2 [Variant V3, A. tumefaciens ClpS2 [Cys34 Ser35 Trp36]] | – | – | – | – | – | – | – | – | – | – | – | – | – | – | – | – | affinity for F1G2 peptide compared to wild-type [1]: increased affinity; selectivity towards F1G2 peptide compared to other NAAs [1]: higher selectivity
B1 | 1.16 s⁻¹ | 4.86 | 3.43 | 1.0 | 63 ± 4 µM | modest specificity for N-terminal Phe | 0.93 s⁻¹ | 1.0 | 0.71 | 0.21 | 13 ± 0.6 µM | 1.32 s⁻¹ | 1.42 | 1.0 | 0.29 | 18.4 ± 0.4 µM | binding to Ala [2]: lack of binding; binding to Val [3]: lack of binding; binding to Ile [4]: does bind; binding to Lys [5]: some binding activity; binding to Met [6]: some binding activity; binding to Leu [7]: does not bind; binding to His [10]: some binding activity; binding to Arg [11]: some binding activity; binding to His [12]: confirmed; binding to Arg [13]: confirmed; binding to the remaining amino acids [14]: non-binding
B2 | 0.5 s⁻¹ | 6.43 | 0.88 | 1.0 | 11.6 ± 1.2 µM | more specific for N-terminal Trp than for Phe | 0.1 s⁻¹ | 1.0 | 0.14 | 0.16 | 1.8 ± 0.4 µM | 0.76 s⁻¹ | 7.28 | 1.0 | 1.13 | 13.1 ± 1.3 µM | improvement in affinity for Y1G2 compared to wild-type ([8]; SPR): 5.5 fold; dissociation rate slowed over wild-type, Phe ([9]; SPR): 9.4 fold; improvement in KD/affinity for Phe peptide compared to wild-type ([9]; SPR): 7.2 fold; improvement in KD/affinity for Phe peptide compared to wild-type ([9]; SPR, listed as ProMetSer variant): 7 fold; affinity for N-terminal Trp relative to wild-type, in words ([15]; in vitro surface binding assays / SPR): little change
